The target of test [1] is T1, His-tagged mAKAP 1286-1833 (bacterially expressed) (UniProt Q9WVC7 1286-1833).
T1 chain: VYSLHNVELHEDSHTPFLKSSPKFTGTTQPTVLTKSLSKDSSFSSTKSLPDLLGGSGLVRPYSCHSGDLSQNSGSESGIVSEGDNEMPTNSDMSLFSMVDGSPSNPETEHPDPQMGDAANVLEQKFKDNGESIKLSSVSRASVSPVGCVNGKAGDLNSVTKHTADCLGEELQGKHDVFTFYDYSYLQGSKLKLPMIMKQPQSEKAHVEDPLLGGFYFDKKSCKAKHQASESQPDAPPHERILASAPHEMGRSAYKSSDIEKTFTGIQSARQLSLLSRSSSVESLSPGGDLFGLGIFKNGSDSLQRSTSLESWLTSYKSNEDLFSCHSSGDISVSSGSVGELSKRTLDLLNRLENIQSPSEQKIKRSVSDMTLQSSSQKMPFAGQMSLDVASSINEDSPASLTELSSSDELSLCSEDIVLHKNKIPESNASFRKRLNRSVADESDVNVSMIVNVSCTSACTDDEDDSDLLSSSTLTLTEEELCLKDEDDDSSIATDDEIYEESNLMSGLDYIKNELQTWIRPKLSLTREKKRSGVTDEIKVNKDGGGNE
Briefly: SPR; unphosphorylated RSK3.

Test [2] addresses T1, His-tagged mAKAP 1286-1833 (bacterially …). As to the kind of experiment: SPR; ERK- and PDK1-phosphorylated RSK3. For orientation: In SPR one partner is held on a chip, and binding of the other changes the refractive index at the surface.
Test [3] deals with T2, His-tagged mAKAP 1286-1833 (bacterially expressed) (UniProt Q9WVC7 1286-1833).
T2 construct: Covalently immobilised by amine coupling on a CM5 chip, 200 resonance units; not shown: His tag (pET30 parent vector)
T2 sequence (looked up): T1 chain
Briefly: SPR (BIAcore T100), His-mAKAP 1286-1833 immobilised, phospho-His-RSK3 as analyte. From the text:
Figure 7: FIG. 7. The p90 ribosomal S6 kinase type 3 (RSK3) binding site within muscle A-kinase anchoring protein (mAKAP). A, mAKAP domain structure. […] All fragments are numbered per mAKAPα. The grey bar indicates the RSK3 binding site. B-F, Specific tag antibodies were used to immunoprecipitate myc-tagged mAKAPβ and HA-tagged p90 ribosomal S6 kinase (RSK) proteins (see FIG. 4A) co-expressed in either HEK293 (B) or COS-7 (C-F) cells (n=3) for all panels. G, Surface plasmon resonance using purified bacterially expressed proteins. […] Each curve was repeated 3 times using different protein preparations.
Surface Plasmon Resonance: SPR analysis was performed using a BIAcore T100. […] (Biacore amine coupling kit) to the surface of a sensor chip (BIAcore type CM5). His-RSK3 analytes (6.25-200 nmol/L) in HBS buffer (10 mmol/L Hepes, pH 7.4, 150 mmol/L NaCl, and 0.005% Surfactant P20) were injected at a flow rate of 30 μL/min for 5 minutes, followed by buffer alone for another 5 minutes. Sensorgrams were processed by BIAcore T100 evaluation software.

The target in test [4] is T1, His-tagged mAKAP 1286-1833 (bacterially …). Briefly: SPR; ERK-phosphorylated RSK3.

B1: His-tagged full-length RSK3, unphosphorylated (bacterially expressed) (enzyme)
chain: MDLSMKKFAVRRFFSVYLRRKSRSKSSSLSRLEEEGVVKEIDISHHVKEGFEKADPSQFELLKVLGQGSYGKVFLVRKVKGSDAGQLYAMKVLKKATLKVRDRVRSKMERDILAEVNHPFIVKLHYAFQTEGKLYLILDFLRGGDLFTRLSKEVMFTEEDVKFYLAELALALDHLHSLGIIYRDLKPENILLDEEGHIKITDFGLSKEAIDHDKRAYSFCGTIEYMAPEVVNRRGHTQSADWWSFGVLMFEMLTGSLPFQGKDRKETMALILKAKLGMPQFLSGEAQSLLRALFKRNPCNRLGAGIDGVEEIKRHPFFVTIDWNTLYRKEIKPPFKPAVGRPEDTFHFDPEFTARTPTDSPGVPPSANAHHLFRGFSFVASSLIQEPSQQDLHKVPVHPIVQQLHGNNIHFTDGYEIKEDIGVGSYSVCKRCVHKATDTEYAVKIIDKSKRDPSEEIEILLRYGQHPNIITLKDVYDDGKFVYLVMELMRGGELLDRILRQRYFSEREASDVLCTITKTMDYLHSQGVVHRDLKPSNILYRDESGSPESIRVCDFGFAKQLRAGNGLLMTPCYTANFVAPEVLKRQGYDAACDIWSLGILLYTMLAGFTPFANGPDDTPEEILARIGSGKYALSGGNWDSISDAAKDVVSKMLHVDPHQRLTAMQVLKHPWVVNREYLSPNQLSRQDVHLVKGAMAATYFALNRTPQAPRLEPVLSSNLAQRRGMKRLTSTRL
On to B1, for which the equilibrium dissociation constant (Kd) (usually the constant that tells how readily two partners part at equilibrium) in test [1] came out at 1.6 nM.

B2: ERK and PDK1-phosphorylated His-RSK3 (enzyme)
chain: B1 chain
modifications: phosphorylated in vitro with ERK2 and PDK1; sites of this preparation not given
notes: also called Phospho-His-RSK3 (ERK2 and PDK1); not shown: His tag
In the case of B2, binding in test [2] was put at a Kd of 12.7 nM. Also, in test [3], the “fold decrease in binding affinity against unphosphorylated RSK3” value is 8 fold.

B3: ERK-phosphorylated His-RSK3 (enzyme)
chain: B1 chain
modifications: phosphorylated in vitro with ERK2; sites of this preparation not given
notes: also called Phospho-His-RSK3 (ERK2); not shown: His tag
For the molecule B3, the “fold decrease in binding affinity against unphosphorylated RSK3” value in test [3] worked out at 5 fold. For the same molecule, the affinity in test [4], expressed as Kd, was 7.3 nM.

These data come from US9132174 (ANCHORED RSK3 INHIBITORS, dated 2015).
